In paper PMC9897478 one finds stoichiometry N data, which are given here for 1 substance.

This test has as its target Desulfofustis deltaproteobacterium ligand-gated ion channel (DeCLIC) (Desulfofustis deltaproteobacterium). Put plainly: cryo-EM structure; DeCLIC in DDM detergent micelles, pH 7, two datasets: with 10 mM Ca2+ and Ca2+-free (chelated); C5 symmetry; homopentamer.

For orientation: stoichiometry N means the number of molecules, sites or subunits per partner or assembly. In the case of “Desulfofustis deltaproteobacterium ligand-gated ion channel (DeCLIC) (natural protein)”, the stoichiometry N came to 5.
